Test results: patent US20230122079A1 (published 2023)

B1: 30436 (WT PD-1: HA PD-L1 masked CD3 × Her2 Fab × scFv Fc, PD-1 cleavable), not treated with uPa (bispecific antibody)
heavy: not shown
light: AFTVTVPKDLYVVEYGSNMTIECKFPVEKQLDLAALQVFWMMEDKNIIQFVHGEEDLKVQHSSYRQRARLLKDQLSLGNAALQITDVKLQDAGVYTCLIAYKGADYKRITVKVNAEAAAKEAAAKDIQMTQSPSSLSASVGDRVTMTCSASSSVSYMNWYQQKPGKAPKRWIYDSSKLASGVPARFSGSGSGTDYTLTISSLQPEDFATYYCQQWSRNPPTFGGGTKLQITRTVAAPSVFIFPPSDEQLKSGTASVVCLLNNFYPREAKVQWKVDNALQSGNSQESVTEQDSKDSTYSLSSTLTLSKADYEKHKVYACEVTHQGLSSPVTKSFNRGEC
chain: not shown
B2: 31929 (Half-masked CD3 × Her2 Fab × scFv Fc, HA PD-1 attached to HC) (bispecific antibody)
heavy: not shown
light: DIQMTQSPSSLSASVGDRVTMTCSASSSVSYMNWYQQKPGKAPKRWIYDSSKLASGVPARFSGSGSGTDYTLTISSLQPEDFATYYCQQWSRNPPTFGGGTKLQITRTVAAPSVFIFPPSDEQLKSGTASVVCLLNNFYPREAKVQWKVDNALQSGNSQESVTEQDSKDSTYSLSSTLTLSKADYEKHKVYACEVTHQGLSSPVTKSFNRGEC
chain: not shown
B3: 31931 (Half-masked CD3 × Her2 Fab × scFv Fc, HA PD-L1 attached to LC) (bispecific antibody)
heavy: not shown
light: AFTVTVPKDLYVVEYGSNMTIECKFPVEKQLDLAALQVFWMMEDKNIIQFVHGEEDLKVQHSSYRQRARLLKDQLSLGNAALQITDVKLQDAGVYTCLIAYKGADYKRITVKVNAEAAAKEAAAKDIQMTQSPSSLSASVGDRVTMTCSASSSVSYMNWYQQKPGKAPKRWIYDSSKLASGVPARFSGSGSGTDYTLTISSLQPEDFATYYCQQWSRNPPTFGGGTKLQITRTVAAPSVFIFPPSDEQLKSGTASVVCLLNNFYPREAKVQWKVDNALQSGNSQESVTEQDSKDSTYSLSSTLTLSKADYEKHKVYACEVTHQGLSSPVTKSFNRGEC
chain: not shown
B4: 30436 treated with uPa (bispecific antibody)
heavy: not shown
light: AFTVTVPKDLYVVEYGSNMTIECKFPVEKQLDLAALQVFWMMEDKNIIQFVHGEEDLKVQHSSYRQRARLLKDQLSLGNAALQITDVKLQDAGVYTCLIAYKGADYKRITVKVNAEAAAKEAAAKDIQMTQSPSSLSASVGDRVTMTCSASSSVSYMNWYQQKPGKAPKRWIYDSSKLASGVPARFSGSGSGTDYTLTISSLQPEDFATYYCQQWSRNPPTFGGGTKLQITRTVAAPSVFIFPPSDEQLKSGTASVVCLLNNFYPREAKVQWKVDNALQSGNSQESVTEQDSKDSTYSLSSTLTLSKADYEKHKVYACEVTHQGLSSPVTKSFNRGEC
chain: not shown
B5: 30421 (CD3 × Her2 Fab × scFv Fc without mask) (bispecific antibody)
heavy: not shown
light: DIQMTQSPSSLSASVGDRVTMTCSASSSVSYMNWYQQKPGKAPKRWIYDSSKLASGVPARFSGSGSGTDYTLTISSLQPEDFATYYCQQWSRNPPTFGGGTKLQITRTVAAPSVFIFPPSDEQLKSGTASVVCLLNNFYPREAKVQWKVDNALQSGNSQESVTEQDSKDSTYSLSSTLTLSKADYEKHKVYACEVTHQGLSSPVTKSFNRGEC
chain: not shown

Assays:
CD3 on Jurkat cells [1] = target: CD3 on Jurkat cells (human); assay: cell ELISA; -uPa
CD3 on Jurkat cells [2] = target: CD3 on Jurkat cells (human); assay: cell ELISA
CD3 on Jurkat cells [3] = target: CD3 on Jurkat cells (human); assay: cell ELISA; +uPa

Chain of CD3 on Jurkat cells (human) (chain, as listed by the source, chain 1 of 4): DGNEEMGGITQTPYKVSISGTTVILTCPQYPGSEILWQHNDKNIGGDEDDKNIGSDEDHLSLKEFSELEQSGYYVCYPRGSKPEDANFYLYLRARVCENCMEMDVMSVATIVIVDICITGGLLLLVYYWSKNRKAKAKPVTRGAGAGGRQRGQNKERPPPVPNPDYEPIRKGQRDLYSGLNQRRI
Chain of CD3 on Jurkat cells (human) (chain, as listed by the source, chain 2 of 4): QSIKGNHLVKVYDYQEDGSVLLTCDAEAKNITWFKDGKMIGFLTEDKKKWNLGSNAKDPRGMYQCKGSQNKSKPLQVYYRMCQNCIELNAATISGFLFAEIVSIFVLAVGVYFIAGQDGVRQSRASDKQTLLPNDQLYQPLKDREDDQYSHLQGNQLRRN
Chain of CD3 on Jurkat cells (human) (chain, as listed by the source, chain 3 of 4): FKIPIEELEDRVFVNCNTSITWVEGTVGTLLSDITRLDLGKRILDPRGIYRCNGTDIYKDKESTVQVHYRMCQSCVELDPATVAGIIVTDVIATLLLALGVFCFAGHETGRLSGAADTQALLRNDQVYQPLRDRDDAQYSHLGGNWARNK
Chain of CD3 on Jurkat cells (human) (chain, as listed by the source, chain 4 of 4): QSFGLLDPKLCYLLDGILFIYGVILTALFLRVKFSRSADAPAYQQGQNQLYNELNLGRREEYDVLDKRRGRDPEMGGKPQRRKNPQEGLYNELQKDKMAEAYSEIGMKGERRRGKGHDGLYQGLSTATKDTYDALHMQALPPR

Row | Binder | EC50 (CD3 on Jurkat cells [2]) [nM] | further results
1 | B1 | – | EC50 (CD3 on Jurkat cells [1]): 178 nM
2 | B2 | 4.2 | –
3 | B3 | 5.33 | –
4 | B4 | – | EC50 (CD3 on Jurkat cells [3]): 6.22 nM
5 | B5 | 1.22 | –
